Numbered stars: 1 amine (or outer) side, 2 acyl side, 3 side chain; on linkers, the order of the positions; unused ones are H or OH. Bridge positions count the residues as written; N and C are the ends. Square brackets hold non-standard residues; d marks the D form. * marks the point of attachment. C20 diacid = O=C(O)CCCCCCCCCCCCCCCCCCC(=O)*; γGlu = O=C(O)[C@H](CCC(=O)[*:2])N[*:1]; 4Pal = N[C@@H](Cc1ccncc1)C(=O)O
Tests used:
human NPRA = biological target: T1, human NPRA (human, UniProt P16066 33-1061); experiment: cell-based or functional assay
T1 sequence (looked up): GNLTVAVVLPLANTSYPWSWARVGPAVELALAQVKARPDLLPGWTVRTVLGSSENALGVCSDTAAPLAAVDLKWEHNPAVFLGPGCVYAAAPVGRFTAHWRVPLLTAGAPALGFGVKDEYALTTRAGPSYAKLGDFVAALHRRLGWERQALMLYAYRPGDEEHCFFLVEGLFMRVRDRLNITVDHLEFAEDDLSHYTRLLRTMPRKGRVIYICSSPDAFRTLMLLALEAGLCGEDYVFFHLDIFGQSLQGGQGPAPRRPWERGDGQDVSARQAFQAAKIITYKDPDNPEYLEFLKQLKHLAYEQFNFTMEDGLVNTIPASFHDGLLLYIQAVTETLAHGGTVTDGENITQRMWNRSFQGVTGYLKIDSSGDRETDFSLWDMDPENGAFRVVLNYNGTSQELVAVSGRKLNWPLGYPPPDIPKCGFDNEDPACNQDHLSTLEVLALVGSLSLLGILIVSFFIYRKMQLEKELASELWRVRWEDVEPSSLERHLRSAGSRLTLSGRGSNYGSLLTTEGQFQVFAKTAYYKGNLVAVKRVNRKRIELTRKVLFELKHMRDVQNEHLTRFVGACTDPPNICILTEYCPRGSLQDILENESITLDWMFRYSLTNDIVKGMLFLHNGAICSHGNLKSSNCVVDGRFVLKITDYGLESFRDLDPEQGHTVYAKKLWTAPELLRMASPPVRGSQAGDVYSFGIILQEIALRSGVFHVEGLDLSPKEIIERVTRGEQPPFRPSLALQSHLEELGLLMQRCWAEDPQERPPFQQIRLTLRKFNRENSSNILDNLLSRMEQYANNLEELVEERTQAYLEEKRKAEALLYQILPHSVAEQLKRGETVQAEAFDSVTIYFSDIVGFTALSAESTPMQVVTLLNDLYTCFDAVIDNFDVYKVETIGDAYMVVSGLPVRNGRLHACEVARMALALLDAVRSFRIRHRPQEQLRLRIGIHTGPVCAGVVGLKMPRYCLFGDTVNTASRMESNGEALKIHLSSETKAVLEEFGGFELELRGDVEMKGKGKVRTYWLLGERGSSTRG

rat NPRA = biological target: T2, rat NPRA (rat, UniProt P18910 29-1057); experiment: cell-based or functional assay
T2 sequence (looked up): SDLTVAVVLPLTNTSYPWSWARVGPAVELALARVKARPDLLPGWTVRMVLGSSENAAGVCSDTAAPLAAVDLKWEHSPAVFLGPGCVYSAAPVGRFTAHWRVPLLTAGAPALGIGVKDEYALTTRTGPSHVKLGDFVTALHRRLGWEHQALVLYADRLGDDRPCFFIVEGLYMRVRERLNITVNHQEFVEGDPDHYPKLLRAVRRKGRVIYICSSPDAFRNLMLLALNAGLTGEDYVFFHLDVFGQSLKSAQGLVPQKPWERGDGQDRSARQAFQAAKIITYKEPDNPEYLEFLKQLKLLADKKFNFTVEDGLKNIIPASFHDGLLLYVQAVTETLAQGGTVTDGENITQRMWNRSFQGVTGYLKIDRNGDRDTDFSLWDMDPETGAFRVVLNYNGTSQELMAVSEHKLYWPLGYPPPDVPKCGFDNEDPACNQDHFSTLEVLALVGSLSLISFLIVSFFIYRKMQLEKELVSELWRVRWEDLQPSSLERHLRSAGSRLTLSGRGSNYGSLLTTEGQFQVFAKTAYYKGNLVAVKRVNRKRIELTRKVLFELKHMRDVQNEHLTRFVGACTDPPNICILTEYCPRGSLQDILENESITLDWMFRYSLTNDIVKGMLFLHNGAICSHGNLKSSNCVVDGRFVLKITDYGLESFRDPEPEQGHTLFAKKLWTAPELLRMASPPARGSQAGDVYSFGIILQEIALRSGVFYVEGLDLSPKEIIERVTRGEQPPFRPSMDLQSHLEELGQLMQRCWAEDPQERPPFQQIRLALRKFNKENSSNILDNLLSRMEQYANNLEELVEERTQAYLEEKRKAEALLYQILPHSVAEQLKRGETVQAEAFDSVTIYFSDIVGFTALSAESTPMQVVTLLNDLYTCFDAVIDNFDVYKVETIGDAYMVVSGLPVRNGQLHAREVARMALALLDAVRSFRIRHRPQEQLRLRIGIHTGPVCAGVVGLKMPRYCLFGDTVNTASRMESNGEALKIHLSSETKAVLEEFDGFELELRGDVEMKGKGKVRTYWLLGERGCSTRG

B1: Example 12 (peptide)
peptide: {C20 diacid}-[γGlu]EKEKEKGSLRRSSCFGGRIDRIGA[4Pal]SGLGCNSFR[4Pal]-NH2
modifications: disulfide 15-31
SMILES: CC[C@H](C)[C@@H]1NC(=O)[C@H](CCCNC(=N)N)NC(=O)[C@H](CC(=O)O)NC(=O)[C@H]([C@@H](C)CC)NC(=O)[C@H](CCCNC(=N)N)NC(=O)CNC(=O)CNC(=O)[C@H](Cc2ccccc2)NC(=O)[C@@H](NC(=O)[C@H](CO)NC(=O)[C@H](CO)NC(=O)[C@H](CCCNC(=N)N)NC(=O)[C@H](CCCNC(=N)N)NC(=O)[C@H](CC(C)C)NC(=O)[C@H](CO)NC(=O)CNC(=O)[C@H](CCCCN)NC(=O)[C@H](CCC(=O)O)NC(=O)[C@H](CCCCN)NC(=O)[C@H](CCC(=O)O)NC(=O)[C@H](CCCCN)NC(=O)[C@H](CCC(=O)O)NC(=O)CC[C@H](NC(=O)CCCCCCCCCCCCCCCCCCC(=O)O)C(=O)O)CSSC[C@@H](C(=O)N[C@@H](CC(N)=O)C(=O)N[C@@H](CO)C(=O)N[C@@H](Cc2ccccc2)C(=O)N[C@@H](CCCNC(=N)N)C(=O)N[C@@H](Cc2ccncc2)C(N)=O)NC(=O)CNC(=O)[C@H](CC(C)C)NC(=O)CNC(=O)[C@H](CO)NC(=O)[C@H](Cc2ccncc2)NC(=O)[C@H](C)NC(=O)CNC1=O
cGMP Assay (EC50, pM) w/BSA (human NPRA): 109000 pM
cGMP Assay (EC50, pM) w/Casein (human NPRA): 1520 pM
cGMP Assay (EC50, pM) w/BSA (rat NPRA): 85500 pM
cGMP Assay (EC50, pM) w/Casein (rat NPRA): 670 pM

B2: Example 13 (peptide)
peptide: {C20 diacid}-[γGlu]EKEKEKGSLRRSSCF[4Pal]GRIDRIGAQSGLGCNSFRY-NH2
modifications: disulfide 15-31
SMILES: CC[C@H](C)[C@@H]1NC(=O)[C@H](CCCNC(=N)N)NC(=O)[C@H](CC(=O)O)NC(=O)[C@H]([C@@H](C)CC)NC(=O)[C@H](CCCNC(=N)N)NC(=O)CNC(=O)[C@H](Cc2ccncc2)NC(=O)[C@H](Cc2ccccc2)NC(=O)[C@@H](NC(=O)[C@H](CO)NC(=O)[C@H](CO)NC(=O)[C@H](CCCNC(=N)N)NC(=O)[C@H](CCCNC(=N)N)NC(=O)[C@H](CC(C)C)NC(=O)[C@H](CO)NC(=O)CNC(=O)[C@H](CCCCN)NC(=O)[C@H](CCC(=O)O)NC(=O)[C@H](CCCCN)NC(=O)[C@H](CCC(=O)O)NC(=O)[C@H](CCCCN)NC(=O)[C@H](CCC(=O)O)NC(=O)CC[C@H](NC(=O)CCCCCCCCCCCCCCCCCCC(=O)O)C(=O)O)CSSC[C@@H](C(=O)N[C@@H](CC(N)=O)C(=O)N[C@@H](CO)C(=O)N[C@@H](Cc2ccccc2)C(=O)N[C@@H](CCCNC(=N)N)C(=O)N[C@@H](Cc2ccc(O)cc2)C(N)=O)NC(=O)CNC(=O)[C@H](CC(C)C)NC(=O)CNC(=O)[C@H](CO)NC(=O)[C@H](CCC(N)=O)NC(=O)[C@H](C)NC(=O)CNC1=O
cGMP Assay (EC50, pM) w/BSA (human NPRA): 145000 pM
cGMP Assay (EC50, pM) w/Casein (human NPRA): 1920 pM
cGMP Assay (EC50, pM) w/BSA (rat NPRA): 24000 pM
cGMP Assay (EC50, pM) w/Casein (rat NPRA): 241 pM

B3: Example 15 (peptide)
peptide: {C20 diacid}-[γGlu]EKEKEKGS[4Pal]RRSSCFGGRIDRIGAQSGLGCNSFR[4Pal]-NH2
modifications: disulfide 15-31
SMILES: CC[C@H](C)[C@@H]1NC(=O)[C@H](CCCNC(=N)N)NC(=O)[C@H](CC(=O)O)NC(=O)[C@H]([C@@H](C)CC)NC(=O)[C@H](CCCNC(=N)N)NC(=O)CNC(=O)CNC(=O)[C@H](Cc2ccccc2)NC(=O)[C@@H](NC(=O)[C@H](CO)NC(=O)[C@H](CO)NC(=O)[C@H](CCCNC(=N)N)NC(=O)[C@H](CCCNC(=N)N)NC(=O)[C@H](Cc2ccncc2)NC(=O)[C@H](CO)NC(=O)CNC(=O)[C@H](CCCCN)NC(=O)[C@H](CCC(=O)O)NC(=O)[C@H](CCCCN)NC(=O)[C@H](CCC(=O)O)NC(=O)[C@H](CCCCN)NC(=O)[C@H](CCC(=O)O)NC(=O)CC[C@H](NC(=O)CCCCCCCCCCCCCCCCCCC(=O)O)C(=O)O)CSSC[C@@H](C(=O)N[C@@H](CC(N)=O)C(=O)N[C@@H](CO)C(=O)N[C@@H](Cc2ccccc2)C(=O)N[C@@H](CCCNC(=N)N)C(=O)N[C@@H](Cc2ccncc2)C(N)=O)NC(=O)CNC(=O)[C@H](CC(C)C)NC(=O)CNC(=O)[C@H](CO)NC(=O)[C@H](CCC(N)=O)NC(=O)[C@H](C)NC(=O)CNC1=O
cGMP Assay (EC50, pM) w/BSA (human NPRA): 57300 pM
cGMP Assay (EC50, pM) w/Casein (human NPRA): 912 pM
cGMP Assay (EC50, pM) w/BSA (rat NPRA): 32600 pM
cGMP Assay (EC50, pM) w/Casein (rat NPRA): 254 pM

B4: Example 14 (peptide)
peptide: {C20 diacid}-[γGlu]EKEKEKGS[4Pal]RRSSCFGGRIDRIGA[4Pal]SGLGCNSFRY-NH2
modifications: disulfide 15-31
SMILES: CC[C@H](C)[C@@H]1NC(=O)[C@H](CCCNC(=N)N)NC(=O)[C@H](CC(=O)O)NC(=O)[C@H]([C@@H](C)CC)NC(=O)[C@H](CCCNC(=N)N)NC(=O)CNC(=O)CNC(=O)[C@H](Cc2ccccc2)NC(=O)[C@@H](NC(=O)[C@H](CO)NC(=O)[C@H](CO)NC(=O)[C@H](CCCNC(=N)N)NC(=O)[C@H](CCCNC(=N)N)NC(=O)[C@H](Cc2ccncc2)NC(=O)[C@H](CO)NC(=O)CNC(=O)[C@H](CCCCN)NC(=O)[C@H](CCC(=O)O)NC(=O)[C@H](CCCCN)NC(=O)[C@H](CCC(=O)O)NC(=O)[C@H](CCCCN)NC(=O)[C@H](CCC(=O)O)NC(=O)CC[C@H](NC(=O)CCCCCCCCCCCCCCCCCCC(=O)O)C(=O)O)CSSC[C@@H](C(=O)N[C@@H](CC(N)=O)C(=O)N[C@@H](CO)C(=O)N[C@@H](Cc2ccccc2)C(=O)N[C@@H](CCCNC(=N)N)C(=O)N[C@@H](Cc2ccc(O)cc2)C(N)=O)NC(=O)CNC(=O)[C@H](CC(C)C)NC(=O)CNC(=O)[C@H](CO)NC(=O)[C@H](Cc2ccncc2)NC(=O)[C@H](C)NC(=O)CNC1=O
cGMP Assay (EC50, pM) w/BSA (human NPRA): 27700 pM
cGMP Assay (EC50, pM) w/Casein (human NPRA): 685 pM
cGMP Assay (EC50, pM) w/BSA (rat NPRA): 37800 pM
cGMP Assay (EC50, pM) w/Casein (rat NPRA): 1170 pM

From patent US20240174727A1, “LONG-ACTING NATRIURETIC PEPTIDES AND USES THEREOF” (Eli Lilly and Company, priority 2022, published 2024)
